This passage reports koff and Kd results from article PMC5547543 (2017).

Like-named read-outs stand apart in the source and are kept apart here.

Holding throughout (assay): SPR
(In general: Surface plasmon resonance follows binding to a sensor surface in real time, without labels.)

In test [1] the target is T1, Hck (2PA-YEEI) (UniProt P08631 1-526, C-terminal tail tyrosine of the YEEI motif constitutively phosphorylated; autophosphorylated at the activation loop tyrosine (Tyr-411 of Hck)).
The target in test [2] is T1, Hck (2PA-YEEI). The source holds these as a separate data set.
For test [3], the target named is T1, Hck (2PA-YEEI). This is another data set of the same source.

T1 sequence (P08631 other isoform, or with tags, fused parts or gaps): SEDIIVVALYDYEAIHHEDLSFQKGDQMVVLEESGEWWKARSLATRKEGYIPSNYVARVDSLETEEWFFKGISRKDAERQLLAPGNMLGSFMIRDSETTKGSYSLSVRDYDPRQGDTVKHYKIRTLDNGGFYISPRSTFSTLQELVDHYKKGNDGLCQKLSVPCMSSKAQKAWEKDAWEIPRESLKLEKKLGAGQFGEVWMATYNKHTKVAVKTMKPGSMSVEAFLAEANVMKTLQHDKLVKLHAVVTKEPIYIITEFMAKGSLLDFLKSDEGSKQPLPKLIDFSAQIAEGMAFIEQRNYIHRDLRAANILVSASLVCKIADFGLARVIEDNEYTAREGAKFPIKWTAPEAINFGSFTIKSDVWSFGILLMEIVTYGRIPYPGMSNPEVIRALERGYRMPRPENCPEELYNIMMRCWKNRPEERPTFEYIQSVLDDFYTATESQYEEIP

B1: Chk (R278A) (enzyme)
chain: MPTRRWAPGTQCITKCEHTRPKPGELAFRKGDVVTILEACENKSWYRVKHHTSGQEGLLAAGALREREALSADPKLSLMPWFHGKISGQEAVQQLQPPEDGLFLVRESARHPGDYVLCVSFGRDVIHYRVLHRDGHLTIDEAVFFCNLMDMVEHYSKDKGAICTKLVRPKRKHGTKSAEEELARAGWLLNLQHLTLGAQIGEGEFGAVLQGEYLGQKVAVKNIKCDVTAQAFLDETAVMTKMQHENLVRLLGVILHQGLYIVMEHVSKGNLVNFLRTAGRALVNTAQLLQFSLHVAEGMEYLESKKLVHRDLAARNILVSEDLVAKVSDFGLAKAERKGLDSSRLPVKWTAPEALKHGKFTSKSDVWSFGVLLWEVFSYGRAPYPKMSLKEVSEAVEKGYRMEPPEGCPGPVHVLMSSCWEAEPARRPPFRKLAEKLARELRSAGAPASVSGQDADGSTSPRSQEP
As usually defined, the koff is the rate constant with which the complex falls apart. A high value points to fast dissociation. A word on the Kd: it is the free concentration of one partner at which half of the binding sites on the other are occupied at equilibrium, for simple one-to-one binding. Higher therefore signals a looser complex. In the test with Hck (2PA-YEEI) [1], B1 gave a dissociation rate constant (koff) of 0.000195 s⁻¹. Besides, the Kd with Hck (2PA-YEEI) [2] was found to be 13 nM.

B2: Chk (R276A) (enzyme)
chain: MPTRRWAPGTQCITKCEHTRPKPGELAFRKGDVVTILEACENKSWYRVKHHTSGQEGLLAAGALREREALSADPKLSLMPWFHGKISGQEAVQQLQPPEDGLFLVRESARHPGDYVLCVSFGRDVIHYRVLHRDGHLTIDEAVFFCNLMDMVEHYSKDKGAICTKLVRPKRKHGTKSAEEELARAGWLLNLQHLTLGAQIGEGEFGAVLQGEYLGQKVAVKNIKCDVTAQAFLDETAVMTKMQHENLVRLLGVILHQGLYIVMEHVSKGNLVNFLATRGRALVNTAQLLQFSLHVAEGMEYLESKKLVHRDLAARNILVSEDLVAKVSDFGLAKAERKGLDSSRLPVKWTAPEALKHGKFTSKSDVWSFGVLLWEVFSYGRAPYPKMSLKEVSEAVEKGYRMEPPEGCPGPVHVLMSSCWEAEPARRPPFRKLAEKLARELRSAGAPASVSGQDADGSTSPRSQEP
Regarding B2, the off-rate (koff) with Hck (2PA-YEEI) [1] came to 0.000208 s⁻¹. Moreover, binding with Hck (2PA-YEEI) [2] was put at a Kd of 56 nM.

B3: Chk (K387A) (enzyme)
chain: MPTQRWAPGTQCMTKCENSRPKPGELAFRKGDMVTILEACEDKSWYRAKHHSSGQEGLLAAAALRQREALSTDPKLSLMPWFHGKISGQEAIQQLQPPEDGLFLVRESARHPGDYVLCVSFGRDVIHYRVLHRDGHLTIDEAVCFCNLMDMVEHYTRDKGAICTKLVKPKRKQGAKSAEEELAKAGWLLDLQHLTLGAQIGEGEFGAVLQGEYLGQKVAVKNIKCDVTAQAFLDETAVMTKLQHRNLVRLLGVILHHGLYIVMEHVSKGNLVNFLRTRGRALVSTSQLLQFALHVAEGMEYLESKKLVHRDLAARNILVSEDLVAKVSDFGLAKAELRKGLDSSRLPVKWTAPEALKNGRFSSKSDVWSFGVLLWEVFSYGRAPYPAMSLKEVSEAVEKGYRMEPPDSCPGPVHTLMGSCWEAEPSRRPPFRKIVEKLGRELRSVGVAAPAGGQEAEGSAPTRSQDPGSGSHHHHHH
As to B3, the koff in the test with Hck (2PA-YEEI) [1] was 0.00036 s⁻¹.

B4: Chk (R280A) (enzyme)
chain: MPTQRWAPGTQCMTKCENSRPKPGELAFRKGDMVTILEACEDKSWYRAKHHSSGQEGLLAAAALRQREALSTDPKLSLMPWFHGKISGQEAIQQLQPPEDGLFLVRESARHPGDYVLCVSFGRDVIHYRVLHRDGHLTIDEAVCFCNLMDMVEHYTRDKGAICTKLVKPKRKQGAKSAEEELAKAGWLLDLQHLTLGAQIGEGEFGAVLQGEYLGQKVAVKNIKCDVTAQAFLDETAVMTKLQHRNLVRLLGVILHHGLYIVMEHVSKGNLVNFLRTRGAALVSTSQLLQFALHVAEGMEYLESKKLVHRDLAARNILVSEDLVAKVSDFGLAKAELRKGLDSSRLPVKWTAPEALKNGRFSSKSDVWSFGVLLWEVFSYGRAPYPKMSLKEVSEAVEKGYRMEPPDSCPGPVHTLMGSCWEAEPSRRPPFRKIVEKLGRELRSVGVAAPAGGQEAEGSAPTRSQDPGSGSHHHHHH
The molecule B4 came in with a koff with Hck (2PA-YEEI) [1] of 0.00024 s⁻¹. For the same molecule, in the test with Hck (2PA-YEEI) [2], binding was put at a Kd of 35 nM.

B5: Chk (R382A) (enzyme)
chain: MPTQRWAPGTQCMTKCENSRPKPGELAFRKGDMVTILEACEDKSWYRAKHHSSGQEGLLAAAALRQREALSTDPKLSLMPWFHGKISGQEAIQQLQPPEDGLFLVRESARHPGDYVLCVSFGRDVIHYRVLHRDGHLTIDEAVCFCNLMDMVEHYTRDKGAICTKLVKPKRKQGAKSAEEELAKAGWLLDLQHLTLGAQIGEGEFGAVLQGEYLGQKVAVKNIKCDVTAQAFLDETAVMTKLQHRNLVRLLGVILHHGLYIVMEHVSKGNLVNFLRTRGRALVSTSQLLQFALHVAEGMEYLESKKLVHRDLAARNILVSEDLVAKVSDFGLAKAELRKGLDSSRLPVKWTAPEALKNGRFSSKSDVWSFGVLLWEVFSYGAAPYPKMSLKEVSEAVEKGYRMEPPDSCPGPVHTLMGSCWEAEPSRRPPFRKIVEKLGRELRSVGVAAPAGGQEAEGSAPTRSQDPGSGSHHHHHH
B5 came in with an off-rate (koff) with Hck (2PA-YEEI) [1] of 0.000322 s⁻¹.

B6: Csk-Chk chimera (enzyme)
chain: MSAIQAAWPSGTECIAKYNFHGTAEQDLPFCKGDVLTIVAVTKDPNWYKAKNKVGREGIIPANYVQKREGVKAGTKLSLMPWFHGKITREQAERLLYPPETGLFLVRESTNYPGDYTLCVSCDGKVEHYRIMYHASKLSIDEEVYFENLMQLVEHYTSDADGLCTRLIKPKVMEGTVAAQDLTLGAQIGEGEFGAVLQGEYLGQKVAVKNIKCDVTAQAFLDETAVMTKMQHENLVRLLGVILHQGLYIVMEHVSKGNLVNFLRTRGRALVNTAQLLQFSLHVAEGMEYLESKKLVHRDLAARNILVSEDLVAKVSDFGLAKAERKGLDSSRLPVKWTAPEALKHGKFTSKSDVWSFGVLLWEVFSYGRAPYPKMSLKEVSEAVEKGYRMEPPEGCPGPVHVLMSSCWEAEPARRPPFRKLAEKLAREL
Regarding B6, binding in the test with Hck (2PA-YEEI) [3] was put at a Kd of 1270 nM.
